In the supplement of paper PMC10065799, “High-throughput profiling of sequence recognition by tyrosine kinases and SH2 domains using bacterial peptide display” (eLife, 2023):

Legend:
[1] = biological target: Grb2 SH2 (UniProt P62993); assay: SH2 binding enrichment of the phosphorylated peptide, bacterial display (enrichment ratio); higher = better substrate or ligand; peptides without Tyr show the background
[2] = biological target: SHP2-C SH2; assay: as above
[3] = biological target: c-Src SH2; assay: as above
[4] = tested on: c-Abl (mouse); assay: phosphorylation enrichment, bacterial display (enrichment ratio); higher = better substrate or ligand; peptides without Tyr show the background
[5] = biological target: Fes (UniProt P07332); assay: as above
[6] = biological target: Fyn (UniProt P06241); assay: as above
Fyn, sequence (P06241 whole entry, looked up): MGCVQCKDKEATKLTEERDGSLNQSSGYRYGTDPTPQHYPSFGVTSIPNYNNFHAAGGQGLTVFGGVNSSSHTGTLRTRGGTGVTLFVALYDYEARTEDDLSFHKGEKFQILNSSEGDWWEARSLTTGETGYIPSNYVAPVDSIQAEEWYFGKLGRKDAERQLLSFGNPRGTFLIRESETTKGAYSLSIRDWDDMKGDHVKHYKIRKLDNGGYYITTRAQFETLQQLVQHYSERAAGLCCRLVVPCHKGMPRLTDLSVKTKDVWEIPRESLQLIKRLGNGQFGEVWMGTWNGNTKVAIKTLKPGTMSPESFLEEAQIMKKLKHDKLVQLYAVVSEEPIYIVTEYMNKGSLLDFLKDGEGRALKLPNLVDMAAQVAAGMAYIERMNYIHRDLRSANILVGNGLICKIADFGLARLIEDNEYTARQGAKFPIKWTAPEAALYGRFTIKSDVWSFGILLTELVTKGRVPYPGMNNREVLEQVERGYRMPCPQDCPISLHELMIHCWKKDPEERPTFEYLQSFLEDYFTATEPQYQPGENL

[7] = tested on: c-Src; assay: as above
[8] = tested on: Fer (mouse); assay: as above
[9] = biological target: Jak2 (UniProt O60674); assay: as above
[10] = biological target: MERTK (UniProt Q12866); assay: as above
MERTK, sequence (Q12866 whole entry, looked up): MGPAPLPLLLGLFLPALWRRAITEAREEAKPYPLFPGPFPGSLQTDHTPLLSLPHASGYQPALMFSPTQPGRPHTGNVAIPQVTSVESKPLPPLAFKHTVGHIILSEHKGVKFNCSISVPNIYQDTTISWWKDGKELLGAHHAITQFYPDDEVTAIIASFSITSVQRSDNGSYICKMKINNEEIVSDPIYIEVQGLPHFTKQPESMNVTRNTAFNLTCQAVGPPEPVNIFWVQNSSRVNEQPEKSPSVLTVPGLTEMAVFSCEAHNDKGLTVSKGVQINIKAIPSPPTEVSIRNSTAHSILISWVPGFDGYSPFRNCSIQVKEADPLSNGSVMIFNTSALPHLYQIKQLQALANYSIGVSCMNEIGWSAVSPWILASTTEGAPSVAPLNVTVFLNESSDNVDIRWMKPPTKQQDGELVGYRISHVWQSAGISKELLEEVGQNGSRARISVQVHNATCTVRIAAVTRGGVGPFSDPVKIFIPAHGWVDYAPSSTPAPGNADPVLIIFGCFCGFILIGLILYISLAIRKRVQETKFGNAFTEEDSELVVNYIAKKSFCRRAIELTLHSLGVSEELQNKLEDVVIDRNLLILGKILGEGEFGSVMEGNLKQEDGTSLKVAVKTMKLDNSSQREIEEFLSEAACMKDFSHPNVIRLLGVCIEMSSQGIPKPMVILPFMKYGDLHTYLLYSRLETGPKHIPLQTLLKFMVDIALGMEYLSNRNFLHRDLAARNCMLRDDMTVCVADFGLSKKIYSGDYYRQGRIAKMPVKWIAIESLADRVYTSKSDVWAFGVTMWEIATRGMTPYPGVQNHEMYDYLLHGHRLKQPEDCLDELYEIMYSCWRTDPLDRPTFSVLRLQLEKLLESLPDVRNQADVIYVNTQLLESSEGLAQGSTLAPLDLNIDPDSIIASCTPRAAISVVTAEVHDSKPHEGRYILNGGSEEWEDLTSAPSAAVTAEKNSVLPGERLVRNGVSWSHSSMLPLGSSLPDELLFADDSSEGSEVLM

[11] = biological target: EPHB2 (UniProt P29323); assay: as above
[12] = biological target: Hck (UniProt P08631); assay: as above
Hck, sequence (P08631 whole entry, looked up): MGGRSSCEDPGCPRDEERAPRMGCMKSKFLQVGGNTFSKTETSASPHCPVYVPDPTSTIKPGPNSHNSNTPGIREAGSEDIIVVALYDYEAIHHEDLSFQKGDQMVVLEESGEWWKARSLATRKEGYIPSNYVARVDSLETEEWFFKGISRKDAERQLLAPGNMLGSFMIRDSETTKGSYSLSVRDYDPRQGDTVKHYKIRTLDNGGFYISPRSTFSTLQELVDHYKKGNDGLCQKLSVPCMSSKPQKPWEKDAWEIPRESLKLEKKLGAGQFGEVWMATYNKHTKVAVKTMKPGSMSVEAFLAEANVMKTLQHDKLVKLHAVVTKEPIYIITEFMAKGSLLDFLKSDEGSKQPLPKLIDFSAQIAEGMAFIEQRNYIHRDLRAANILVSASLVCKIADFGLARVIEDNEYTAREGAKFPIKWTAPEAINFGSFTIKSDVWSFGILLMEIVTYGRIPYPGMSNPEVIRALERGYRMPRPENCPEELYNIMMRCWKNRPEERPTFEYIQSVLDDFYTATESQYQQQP

[13] = biological target: EPHB1 (UniProt P54762); assay: as above
EPHB1, sequence (P54762 whole entry, looked up): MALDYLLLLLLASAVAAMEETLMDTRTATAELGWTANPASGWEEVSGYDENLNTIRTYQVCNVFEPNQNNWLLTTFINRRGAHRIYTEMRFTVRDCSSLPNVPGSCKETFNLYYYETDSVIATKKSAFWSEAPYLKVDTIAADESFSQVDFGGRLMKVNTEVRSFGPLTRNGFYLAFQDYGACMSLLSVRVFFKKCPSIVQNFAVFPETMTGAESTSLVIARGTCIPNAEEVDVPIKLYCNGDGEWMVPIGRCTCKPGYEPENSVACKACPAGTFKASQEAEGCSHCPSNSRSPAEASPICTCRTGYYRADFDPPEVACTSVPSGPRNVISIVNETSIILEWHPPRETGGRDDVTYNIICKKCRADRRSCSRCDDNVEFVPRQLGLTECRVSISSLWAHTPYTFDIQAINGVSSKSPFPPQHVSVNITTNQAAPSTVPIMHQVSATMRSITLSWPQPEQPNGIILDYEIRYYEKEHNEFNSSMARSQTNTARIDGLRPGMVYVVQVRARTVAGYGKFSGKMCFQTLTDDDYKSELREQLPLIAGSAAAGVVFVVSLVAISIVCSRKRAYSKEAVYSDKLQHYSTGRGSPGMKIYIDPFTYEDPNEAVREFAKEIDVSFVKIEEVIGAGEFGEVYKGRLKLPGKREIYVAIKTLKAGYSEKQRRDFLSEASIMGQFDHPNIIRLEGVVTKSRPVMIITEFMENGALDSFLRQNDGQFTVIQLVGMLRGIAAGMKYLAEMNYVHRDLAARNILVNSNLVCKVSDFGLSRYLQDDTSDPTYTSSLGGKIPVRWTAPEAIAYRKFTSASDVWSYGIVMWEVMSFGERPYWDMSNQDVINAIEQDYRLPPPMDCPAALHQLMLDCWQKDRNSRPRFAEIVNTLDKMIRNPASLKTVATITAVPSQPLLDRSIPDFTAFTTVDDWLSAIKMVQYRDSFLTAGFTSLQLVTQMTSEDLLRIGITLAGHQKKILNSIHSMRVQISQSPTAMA

[14] = biological target: FGFR1 (UniProt P11362); assay: as above
FGFR1, sequence (P11362 whole entry, looked up): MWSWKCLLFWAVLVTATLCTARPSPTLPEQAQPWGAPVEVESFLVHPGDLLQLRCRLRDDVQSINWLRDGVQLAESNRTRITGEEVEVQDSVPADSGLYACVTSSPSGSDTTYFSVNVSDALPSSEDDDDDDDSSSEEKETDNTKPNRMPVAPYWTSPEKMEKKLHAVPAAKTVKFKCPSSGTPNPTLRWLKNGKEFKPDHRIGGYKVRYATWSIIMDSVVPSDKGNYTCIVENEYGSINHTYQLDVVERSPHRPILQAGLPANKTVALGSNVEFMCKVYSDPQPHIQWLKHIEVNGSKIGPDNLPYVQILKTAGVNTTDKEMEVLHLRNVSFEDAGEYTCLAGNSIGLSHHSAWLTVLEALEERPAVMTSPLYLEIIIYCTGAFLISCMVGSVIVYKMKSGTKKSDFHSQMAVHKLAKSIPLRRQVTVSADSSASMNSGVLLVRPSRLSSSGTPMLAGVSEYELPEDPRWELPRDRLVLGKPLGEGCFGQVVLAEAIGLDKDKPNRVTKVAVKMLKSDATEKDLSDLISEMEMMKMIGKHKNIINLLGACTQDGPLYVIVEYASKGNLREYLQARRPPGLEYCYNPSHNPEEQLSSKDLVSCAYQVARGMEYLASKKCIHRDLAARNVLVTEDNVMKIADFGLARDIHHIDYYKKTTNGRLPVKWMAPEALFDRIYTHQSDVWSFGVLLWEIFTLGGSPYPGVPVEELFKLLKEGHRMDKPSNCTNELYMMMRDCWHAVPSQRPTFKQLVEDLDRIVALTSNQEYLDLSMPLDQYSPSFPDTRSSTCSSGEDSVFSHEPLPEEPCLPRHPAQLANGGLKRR

[15] = biological target: FGFR3 (UniProt P22607); assay: as above
FGFR3, sequence (P22607 whole entry, looked up): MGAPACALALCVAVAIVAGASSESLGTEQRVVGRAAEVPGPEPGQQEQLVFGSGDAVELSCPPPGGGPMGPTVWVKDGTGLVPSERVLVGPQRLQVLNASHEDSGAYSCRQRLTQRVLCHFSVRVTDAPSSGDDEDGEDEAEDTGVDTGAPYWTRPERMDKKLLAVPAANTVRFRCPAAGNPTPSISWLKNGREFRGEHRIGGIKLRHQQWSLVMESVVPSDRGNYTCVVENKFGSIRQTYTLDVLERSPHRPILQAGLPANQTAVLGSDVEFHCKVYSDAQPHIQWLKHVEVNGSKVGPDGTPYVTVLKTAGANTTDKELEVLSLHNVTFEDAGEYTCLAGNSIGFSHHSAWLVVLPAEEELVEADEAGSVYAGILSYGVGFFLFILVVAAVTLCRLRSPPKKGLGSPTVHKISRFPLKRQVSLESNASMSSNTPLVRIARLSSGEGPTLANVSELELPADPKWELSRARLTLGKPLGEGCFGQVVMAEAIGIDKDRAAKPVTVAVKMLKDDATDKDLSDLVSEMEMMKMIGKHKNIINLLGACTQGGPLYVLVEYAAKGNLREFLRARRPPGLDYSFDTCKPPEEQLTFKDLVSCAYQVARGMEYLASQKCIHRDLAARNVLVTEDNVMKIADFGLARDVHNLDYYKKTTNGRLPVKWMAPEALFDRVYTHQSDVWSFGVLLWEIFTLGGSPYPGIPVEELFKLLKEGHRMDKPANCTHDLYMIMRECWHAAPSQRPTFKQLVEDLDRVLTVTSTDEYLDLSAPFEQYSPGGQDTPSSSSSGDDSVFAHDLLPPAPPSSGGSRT

[16] = tested on: AncSZ; assay: as above
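Wherever SH2 binding enrichment of the phosphorylated peptide, bacterial display is given: peptide library displayed on the E. coli surface as eCPX fusions, selected cells deep-sequenced, score is each peptide's frequency after selection divided by its frequency in the input.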
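Wherever phosphorylation enrichment, bacterial display is given: 11-residue human phosphosite peptides and single-mutation variants displayed on the E. coli surface, counted by deep sequencing, each peptide's frequency after selection divided by its frequency in the unselected input library; frequency after pTyr selection over input frequency; kinase dosed for 20-30% of maximal phosphorylation in three min.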

SH2 binding enrichment [1] | SH2 binding enrichment [2] | SH2 binding enrichment [3] | Sequence | phosphorylation enrichment [4] | phosphorylation enrichment [5] | phosphorylation enrichment [6] | phosphorylation enrichment [7] | phosphorylation enrichment [8] | phosphorylation enrichment [9] | phosphorylation enrichment [10] | phosphorylation enrichment [11] | phosphorylation enrichment [12] | phosphorylation enrichment [13] | phosphorylation enrichment [14] | phosphorylation enrichment [15] | phosphorylation enrichment [16]
1.32 | 1.03 | 0.564 | LKGIRYLTSGL [PIGA_Y82_R77L] | 1.28 | 1.09 | 1.05 | 0.762 | 1.01 | 0.959 | 0.644 | 0.913 | 0.937 | 1.12 | 0.691 | 0.452 | 1.03
0.824 | 1.43 | 1.34 | LSIQTYSALNF [DES_Y423_P419S] | 1.46 | 2.14 | 4.8 | 5.21 | 2.61 | 1.76 | 6.97 | 4.34 | 6.9 | 3.92 | 0.991 | 1.09 | 1.58
0.777 | 0.793 | 0.486 | LEAVSYSSRFA [RNLS_Y190_YF] | 0.596 | 0.773 | 0.474 | 0.435 | 0.408 | 0.564 | 0.399 | 0.359 | 0.463 | 0.369 | 0.432 | 0.496 | 0.718
0.774 | 0.511 | 0.506 | EPFKVYRIVPE [IRF8_Y110_YF] | 0.43 | 0.698 | 0.462 | 0.588 | 0.424 | 0.526 | 0.453 | 0.454 | 0.4 | 0.428 | 0.468 | 0.485 | 0.572
0.82 | 0.871 | 0.858 | ATGGFYSYGGG [KRT24_Y120] | 0.763 | 1.11 | 2.39 | 1.26 | 4.4 | 0.858 | 11.6 | 0.885 | 1.8 | 0.881 | 0.506 | 0.659 | 0.906
0.757 | 0.885 | 0.505 | KSDVVYTDWKK [ORM1_Y175] | 1.4 | 1.02 | 1.55 | 1.65 | 0.592 | 0.648 | 0.559 | 0.513 | 4.84 | 0.44 | 0.558 | 0.609 | 0.856
1.08 | 0.915 | 0.727 | WRVIGYHVVVW [ATP13A2_Y50] | 0.903 | 1.25 | 0.444 | 0.501 | 0.587 | 1.19 | 0.417 | 0.692 | 0.568 | 0.695 | 0.551 | 0.828 | 1.21
0.817 | 0.649 | 1.8 | ILGRYYETGSI [PAX2_Y73] | 0.535 | 0.68 | 0.562 | 0.455 | 0.459 | 0.643 | 0.707 | 0.594 | 0.49 | 0.546 | 0.848 | 0.834 | 0.685
1.11 | 1.26 | 1.05 | AKRKNYAPVAM [CFAP47_Y557] | 0.57 | 0.521 | 0.393 | 0.432 | 0.302 | 0.341 | 0.468 | 0.425 | 0.392 | 0.648 | 0.654 | 0.371 | 0.562
0.87 | 0.733 | 0.47 | FKDGQYWIRGW [ACSF3_Y466_R471W] | 0.636 | 1.13 | 0.513 | 0.534 | 0.372 | 0.927 | 0.345 | 0.624 | 0.799 | 0.624 | 0.609 | 0.551 | 0.998
1.09 | 25.9 | 3.1 | NGSKGYAFVHF [PABPC5_Y147_YF] | 0.755 | 0.875 | 0.469 | 0.407 | 0.478 | 0.825 | 0.444 | 0.606 | 0.445 | 0.481 | 0.5 | 0.611 | 0.879
1.23 | 0.662 | 0.809 | HFPDVYAWEQL [ALX3_Y181_R183W_YF] | 0.632 | 1.46 | 7.03 | 5.25 | 11.3 | 0.893 | 2.25 | 0.935 | 3.06 | 0.922 | 0.616 | 0.674 | 1.2
0.874 | 0.609 | 0.536 | GTVRDYPDFNP [ANXA3_Y15_S19N] | 0.663 | 0.796 | 0.404 | 0.357 | 0.407 | 0.9 | 0.304 | 0.431 | 0.418 | 0.519 | 0.403 | 0.526 | 0.785
0.765 | 0.735 | 0.489 | NLSVPYDSSLK [ABCC8_Y1353_R1352P] | 0.516 | 0.68 | 0.41 | 0.508 | 0.418 | 0.588 | 0.426 | 0.509 | 0.445 | 0.451 | 0.445 | 0.503 | 0.601
0.95 | 0.96 | 0.756 | QTWKTYVRQQQ [SFI1_Y164] | 0.673 | 1.02 | 0.526 | 0.37 | 0.446 | 0.766 | 0.456 | 0.685 | 0.402 | 0.524 | 0.411 | 0.738 | 0.914
0.93 | 0.972 | 0.867 | TNIKRYHIAKG [HARS1_Y150_V155G] | 0.503 | 0.479 | 0.409 | 0.408 | 0.33 | 0.368 | 0.405 | 0.39 | 0.367 | 0.311 | 0.351 | 0.356 | 0.506
1.03 | 0.906 | 0.731 | GGSTYYIDTNA [ACTL6A_Y69_P66S] | 0.654 | 0.998 | 0.955 | 0.805 | 0.453 | 0.668 | 1.01 | 0.555 | 0.602 | 0.563 | 0.724 | 0.719 | 0.882

SH2 binding enrichment [1] | SH2 binding enrichment [2] | SH2 binding enrichment [3] | Sequence | phosphorylation enrichment [4] | phosphorylation enrichment [5] | phosphorylation enrichment [6] | phosphorylation enrichment [7] | phosphorylation enrichment [8] | phosphorylation enrichment [9] | phosphorylation enrichment [10] | phosphorylation enrichment [11] | phosphorylation enrichment [12] | phosphorylation enrichment [13] | phosphorylation enrichment [14] | phosphorylation enrichment [15] | phosphorylation enrichment [16]
0.776 | 0.656 | 1.34 | MNPPPYSQLLS [FGF23_Y154_F157L] | 0.489 | 0.623 | 0.522 | 0.644 | 0.483 | 0.523 | 0.451 | 0.606 | 0.568 | 0.639 | 0.527 | 0.71 | 0.692
1.15 | 1.08 | 0.852 | AQMAMYFWEMS [TRPM4_Y577_G582S] | 1.14 | 1.73 | 1.15 | 2.52 | 0.9 | 1.61 | 2.5 | 1.05 | 1.18 | 1.09 | 3.42 | 2.88 | 1.86
0.718 | 0.734 | 0.588 | LLFRVYGLESL [INSR_Y94] | 1.15 | 1.76 | 0.752 | 0.565 | 0.757 | 1.77 | 0.792 | 0.828 | 0.465 | 0.96 | 0.542 | 1.4 | 1.88
1.02 | 0.649 | 2.15 | ADNQRYAFMPL [TMEM87B_Y460_N456D] | 0.781 | 0.812 | 0.503 | 0.452 | 0.502 | 0.673 | 6.67 | 0.663 | 0.628 | 1.07 | 0.733 | 0.641 | 0.728
0.72 | 0.713 | 0.5 | DLDATYRPMFS [JUP_Y701_M697L_YF] | 0.662 | 0.85 | 0.522 | 0.542 | 0.489 | 0.673 | 0.33 | 0.557 | 0.686 | 0.636 | 0.491 | 0.557 | 0.722
0.717 | 0.418 | 2.51 | FTNRSYDLDYD [MYC_Y12_N11S] | 0.645 | 1.13 | 0.565 | 0.576 | 0.488 | 0.804 | 0.512 | 0.841 | 0.632 | 0.542 | 0.561 | 0.745 | 1.24
0.689 | 0.499 | 2.07 | GSQERYFELVE [TSC2_Y407] | 0.813 | 1.27 | 0.462 | 0.509 | 0.541 | 1.17 | 0.489 | 0.571 | 0.466 | 0.577 | 0.947 | 0.826 | 1.13
0.941 | 0.886 | 0.438 | IIWDSYTTNKM [GNB4_Y85] | 0.596 | 1.21 | 0.682 | 0.321 | 0.527 | 0.873 | 0.401 | 0.656 | 0.506 | 0.68 | 0.575 | 0.671 | 1.3
1.03 | 0.992 | 0.383 | FETSHYPASPD [CTNND2_Y1217_YF] | 0.463 | 0.77 | 0.361 | 0.31 | 0.486 | 0.553 | 0.323 | 0.408 | 0.435 | 0.483 | 0.475 | 0.508 | 0.52
0.804 | 0.679 | 0.47 | TNEFEYDELIV [TGM1_Y136_D132N_YF] | 0.951 | 1.61 | 0.475 | 0.669 | 0.709 | 1.37 | 0.483 | 0.424 | 0.747 | 0.51 | 0.658 | 0.887 | 1.61
0.729 | 0.748 | 0.546 | HILQLYRCREE [ALPK3_Y342_T338I] | 0.423 | 1.05 | 0.65 | 0.577 | 0.556 | 0.709 | 0.515 | 0.705 | 0.553 | 0.924 | 0.763 | 0.871 | 0.945
0.551 | 0.658 | 0.582 | YSMGCYEISLG [HMGCL_Y198] | 1.08 | 1.47 | 2.15 | 2.35 | 2.77 | 1.38 | 2.66 | 1.18 | 1.22 | 1.56 | 0.69 | 0.817 | 2.12
1.08 | 0.765 | 0.93 | TQRPYYKGGGG [TYROBP_Y112] | 0.573 | 0.666 | 0.417 | 0.438 | 0.419 | 0.537 | 0.553 | 0.303 | 0.377 | 0.39 | 0.558 | 0.455 | 0.49
0.776 | 0.612 | 0.495 | FSPGSYERETF [NF1_Y2192] | 0.702 | 0.856 | 0.429 | 0.539 | 0.427 | 0.763 | 0.429 | 0.548 | 0.447 | 0.526 | 0.483 | 0.535 | 0.883
0.825 | 0.645 | 0.286 | PSQRCYVYYYS [PTEN_Y174_R173C] | 1.77 | 2.28 | 1.09 | 3.16 | 0.807 | 2.59 | 2.02 | 0.556 | 1.03 | 0.931 | 1.41 | 1.8 | 2.35
0.848 | 0.64 | 0.923 | KPVDTYYDSTR [DYNC2H1_Y2230_M2227V] | 0.633 | 0.809 | 0.508 | 0.56 | 0.427 | 0.756 | 0.397 | 0.496 | 0.808 | 0.648 | 0.826 | 0.668 | 0.808
